The text below walks through data of PMC6625990, “Structural underpinnings of Ric8A function as a G-protein α-subunit chaperone and guanine-nucleotide exchange factor” (Nature Communications, 2019).

The chains are these.
B1: bovine Ric8A1–492 (domain or fragment, UniProt Q5E9J8 1-492, looked up)
chain: MEPRAVADALETGEEDVVMEALRAYNRENSQSFTFDDAQQEDRKRLAKLLVSVLEQGLPPSRRVIWLQSIRILSRDRSCLDSFTSRRSLQALACYAGISASQGSVPEPLNMDVVLESLKCLCNLVLSSPVAQALAAEAGLVVRLAERVGLCRQSSFPHDVQFFDLRLLFLLTALRTDVRQQLFQELQGVRLLTRALELTLGMTEGERHPELLPPQETERAMEILKVLFNITFDSIKREVDEEDAALYRHLGTLLRHCVMLAAAGDRTEELHGHAVNLLGNLPVKCLDVLLTLEPHEGSLEFLGVNMDVIRVLLSFMEKRLHQTHRLKESVAPVLSVLTECARMHRPARKFLKAQVLPPLRDVRTRPEVGELLRNKLVRLMTHLDTDVKRVAAEFLFVLCSESVPRFIKYTGYGNAAGLLAARGLMAGGRPEGQYSEDEDTDTDEYKEAKASINPVTGRVEEKPPNPMEGMTEEQKEHEAMKLVNMFDKLSRH
B2: Gαt333–350 (peptide, UniProt P04695 333-350, looked up)
peptide: Biotin-DAVTDIIIKENLKDCGLF
notes: also called 18-mer C-terminal peptide of Gαt; biotinylated Gαt333–350

Conditions in all cases: both partners purified
One data set concerns the target T1, GB1-Gαt340–350 (UniProt P04695 340-350).
T1 construct: transducin-α (Gαt, Gαt1), the 11 C-terminal residues 340-350; Cloned into a modified pQE30 vector containing the GB1 tag; also called 11 C-terminal residues of Gαt fused to the B1 domain of Streptococcal protein G; source: E. coli BL21(DE3); purification not described
T1 chain (looked up): IKENLKDCGLF
Put plainly: SEC; Ric8A1–492 mixed with GB1-Gαt340–350 or MBP-Gαt327–350; elution profiles.

A further data set concerns the target T2, MBP-Gαt327–350 (UniProt P04695 327-350).
T2 construct: In pET15b; also called 24 C-terminal residues of Gαt fused to MBP; tagged C-terminal fragment of Gα; source: E. coli BL21(DE3), purified (Ni-NTA, SEC); not shown: MBP (E. coli MBP28–394 with D110A/K111A/E200A/N201A/A243H/K247H/K267A, joined by an AAAH linker), N-terminal, kept
T2 chain (looked up): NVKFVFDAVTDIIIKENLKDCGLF
Described as above.

The data set “Gαt333–350” deals with B2. The data set is described as follows: differential scanning fluorimetry; Ric8A constructs at 0.5 mg/ml with or without 50 µM peptide, Sypro Orange, 20 mM Tris-HCl pH 7.5, 150 mM KCl, 5% glycerol, 1 mM TCEP.
The target in the next data set is T3, Gαs363–380 (UniProt P63092-2 363-380).
T3 construct: Gαs, C-terminal 18 residues 363-380; the numbers fit the 380-residue short form; also called peptide comprised of the C-terminal 18 residues of Gαs; Gαs C-terminal peptide
T3 peptide (looked up): Biotin-NDCRDIIQRMHLRQYELL
The data set is described as follows: BLI; N-terminally biotinylated Gα peptides on streptavidin biosensors, Ric8A proteins in solution; Octet RED96, 26 °C, 20 mM Tris, 150 mM KCl, 5% glycerol, 1 mM TCEP, 0.5 mg/ml BSA, pH 8.0; kinetic fit (1:1 model) and steady-state fit (one site). (In general: Biolayer interferometry detects binding as a change in optical thickness at a sensor tip.)

Data set [1] concerns the target B1. Described as above.
In data set [2] the target is B1. The data set is described as follows: BLI; full-length Avi-tagged Gαt on streptavidin biosensors, Ric8A1–492 proteins in solution; 26 °C, 20 mM Tris, 150 mM KCl, 5% glycerol, 1 mM TCEP, 0.5 mg/ml BSA, pH 8.0; steady-state fit.

Values joined by “and” are separate entries in the source; they are usually repeats but may differ in a detail not shown here. Equal values may be shown once. No end group written: not given here. *: point of attachment. Biotin = O=C1N[C@H]2[C@H](CS[C@H]2CCCCC(=O)*)N1

Consider B1, for which the “stoichiometry N” value with GB1-Gαt340–350 and with MBP-Gαt327–350 was approximately 1 throughout. Also, the “shift of Tm” value with Gαt333–350 is approximately 9 °C. In the data set with Gαs363–380, the “fold lower affinity than to Gαt333–350” value is approximately 18 fold.
Consider B2, for which, in the data set with bovine Ric8A1–492 [1], the Kd is 240 nM and 280 nM and 270 nM; the koff was 0.031 s⁻¹; the on-rate (kon) came out at 130000 M⁻¹ s⁻¹.

B3: full-length Avi-tagged Gαt (natural protein)
chain: MGAGASAEEKHSRELEKKLKEDAEKDARTVKLLLLGAGESGKSTIVKQMKIIHQDGYSLEECLEFIAIIYGNTLQSILAIVRAMTTLNIQYGDSARQDDARKLMHMADTIEEGTMPKEMSDIIQRLWKDSGIQACFDRASEYQLNDSAGYYLSDLERLVTPGYVPTEQDVLRSRVKTTGIIETQFSFKDLNFRMFDVGGQRSERKKWIHCFEGVTAIIFCVALSDYDLVLAEDEEMNRMHESMKLFDSICNNKWFTDTSIILFLNKKDLFEEKIKKSPLTICYPEYAGSNTYEEAGNYIKVQFLELNMRRDVKEIYSHMTCATDTQNVKFVFDAVTDIIIKENLKDCGLF
modifications: biotin on the Avi tag (cells grown in media supplemented with biotin)
The molecule B3 returned an equilibrium dissociation constant (Kd) in the data set with bovine Ric8A1–492 [2] of 24 nM.

B4: Avi-tagged I340Q/N343H mutant of Gαt (natural protein)
chain: MGAGASAEEKHSRELEKKLKEDAEKDARTVKLLLLGAGESGKSTIVKQMKIIHQDGYSLEECLEFIAIIYGNTLQSILAIVRAMTTLNIQYGDSARQDDARKLMHMADTIEEGTMPKEMSDIIQRLWKDSGIQACFDRASEYQLNDSAGYYLSDLERLVTPGYVPTEQDVLRSRVKTTGIIETQFSFKDLNFRMFDVGGQRSERKKWIHCFEGVTAIIFCVALSDYDLVLAEDEEMNRMHESMKLFDSICNNKWFTDTSIILFLNKKDLFEEKIKKSPLTICYPEYAGSNTYEEAGNYIKVQFLELNMRRDVKEIYSHMTCATDTQNVKFVFDAVTDIIQKEHLKDCGLF
modifications: biotin on the Avi tag (cells grown in media supplemented with biotin)
As to B4, in the data set with bovine Ric8A1–492 [2], the Kd came to 2300 nM.

B5: peptide C2 (peptide)
peptide: Biotin-NDCRDIIIRMNLRQCGLF
modifications: cysteine pairing not given here
notes: Gαs C-terminal 18-mer without its last four residues, with Q370I and H373N; the numbers fit the 380-residue short form; the four C-terminal residues of Gαt; Peptide C1 with two additional substitutions
B5: the binding result in the data set with bovine Ric8A1–492 [1] is recorded as “binds”.

B6: peptide C1 (peptide)
peptide: Biotin-NDCRDIIQRMHLRQCGLF
modifications: cysteine pairing not given here
notes: Gαs C-terminal 18-mer without its last four residues; the numbers fit the 380-residue short form; the four C-terminal residues of Gαt; also called chimeric C-terminal peptide of Gαs ending in CGLF
With B6, the binding result with bovine Ric8A1–492 [1] was “binds”.

By stoichiometry N is commonly meant a count of units in the complex or per binding partner. In general, Kd refers to the concentration at which binding is half-saturated. Low values mean a tighter complex, high ones a looser complex. The koff is the first-order rate constant of dissociation. A low value points to slow dissociation. One may read the kon as the second-order rate constant of association. Higher therefore signals fast association.
